From IntAct's records for PubMed 28506294 come the findings set out here.

Sequences and labels used below:
B1: SOSS complex subunit B1 (Homo sapiens), Q9BQ15 (parent)
chain: MTTETFVKDIKPGLKNLNLIFIVLETGRVTKTKDGHEVRTCKVADKTGSINISVWDDVGNLIQPGDIIRLTKGYASVFKGCLTLYTGRGGDLQKIGEFCMVYSEVPNFSEPNPEYSTQQAPNKAVQNDSNPSASQPTTGPSAASPASENQNGNGLSAPPGPGGGPHPPHTPSHPPSTRITRSQPNHTPAGPPGPSSNPVSNGKETRRSSKR

The variants in this assay derive from B1. Particulars: with int3_human INTS3, Q68E01.
Sequence of int3_human INTS3, Q68E01 (Q68E01 whole entry): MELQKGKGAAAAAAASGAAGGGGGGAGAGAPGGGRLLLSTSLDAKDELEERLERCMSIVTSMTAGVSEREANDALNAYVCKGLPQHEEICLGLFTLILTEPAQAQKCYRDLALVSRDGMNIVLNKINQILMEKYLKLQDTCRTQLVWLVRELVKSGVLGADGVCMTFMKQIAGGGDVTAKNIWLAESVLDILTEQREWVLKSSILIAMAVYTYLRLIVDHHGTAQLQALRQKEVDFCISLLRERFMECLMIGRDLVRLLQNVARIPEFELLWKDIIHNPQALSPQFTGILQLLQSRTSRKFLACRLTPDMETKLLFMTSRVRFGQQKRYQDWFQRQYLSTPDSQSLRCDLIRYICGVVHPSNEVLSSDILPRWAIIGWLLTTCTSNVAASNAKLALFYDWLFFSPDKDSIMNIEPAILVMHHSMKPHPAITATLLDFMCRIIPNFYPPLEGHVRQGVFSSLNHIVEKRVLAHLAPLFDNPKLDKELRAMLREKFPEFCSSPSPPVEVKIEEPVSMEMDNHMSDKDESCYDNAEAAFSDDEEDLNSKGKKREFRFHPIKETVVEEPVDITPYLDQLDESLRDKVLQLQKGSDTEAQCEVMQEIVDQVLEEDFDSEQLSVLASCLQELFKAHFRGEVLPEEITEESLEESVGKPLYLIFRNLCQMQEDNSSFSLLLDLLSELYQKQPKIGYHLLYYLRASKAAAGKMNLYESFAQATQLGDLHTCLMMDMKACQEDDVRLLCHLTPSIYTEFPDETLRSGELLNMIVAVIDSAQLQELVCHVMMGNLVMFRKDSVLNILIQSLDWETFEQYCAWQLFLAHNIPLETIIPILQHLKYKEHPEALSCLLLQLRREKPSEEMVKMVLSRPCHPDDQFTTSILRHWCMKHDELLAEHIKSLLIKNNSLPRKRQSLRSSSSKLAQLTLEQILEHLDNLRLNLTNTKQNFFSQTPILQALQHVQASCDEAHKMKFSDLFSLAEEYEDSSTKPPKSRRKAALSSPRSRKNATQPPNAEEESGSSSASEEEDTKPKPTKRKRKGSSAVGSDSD
As to F98A, the “effect of a mutation on the interaction” value is “disrupting interaction strength”.
